Paper doi:10.1101/358382
Read-outs that look alike come from different tables or passages of the source. Blank lines part the entries; values can stand above or below the substance they belong to.

Experiments:
[1] = target: DurN; experiment: crystal structure
[2] = target: DurN; experiment: crystal structure; remark: listed apart in the source
[3] = target: DurN; experiment: crystal structure; remark: listed apart in the source
[4] = target: MBP-DurN; experiment: fluorescence polarisation
[5] = target: fluorescently labeled duramycin; experiment: fluorescence polarisation

stoichiometry N [1]: 2
stoichiometry N [2]: 2
stoichiometry N [3]: 2
Substance: DurN (enzyme)

Ki [4]: 2.72 µM
Substance: duramycin (peptide)

Ki [5]: 7.43 µM
Substance: MBP-DurN K66A (enzyme)

Kd [5]: 0.417 µM
Substance: MBP-DurN (enzyme)

Ki [4]: 10.2 µM
Substance: 1-Hya15Ser (peptide)
